According to paper PMC2924460 (Arteriosclerosis, thrombosis, and vascular biology, 2010):

Target: the molecule itself
Assay: FRET or BRET

B1: thromboxane A2 receptor alpha (TPα), fused to renilla luciferase (TPαrLUC) or to yellow fluorescent protein (TPαYFP) (receptor, UniProt P21731 1-343, looked up)
chain: MWPNGSSLGPCFRPTNITLEERRLIASPWFAASFCVVGLASNLLALSVLAGARQGGSHTRSSFLTFLCGLVLTDFLGLLVTGTIVVSQHAALFEWHAVDPGCRLCRFMGVVMIFFGLSPLLLGAAMASERYLGITRPFSRPAVASQRRAWATVGLVWAAALALGLLPLLGVGRYTVQYPGSWCFLTLGAESGDVAFGLLFSMLGGLSVGLSFLLNTVSVATLCHVYHGQEAAQQRPRDSEVEMMAQLLGIMVVASVCWLPLLVFIAQTVLRNPPAMSPAGQLSRTTEKELLIYLRVATWNQILDPWVYILFRRAVLRRLQPRLSTRPRSLSLQPQLTQRSGLQ
- BRET50: 1.24 YFP fold over basal
